From the RNAGym collection of RNA variant scans (doi:10.7554/elife.90254)

B1: OR4K15 (parent)
chain: GUUAACGGUCAUAGGCCAUGGAAACUAGGAGCACCAUUUCGCUGCCAGUGAAGAAAUGAACAAAGAAAAUCUGGGCCAGGCAGGCAUCAAAAGAAAUAGUCUUGCGCUCAACCAGAAAGUCUGUAAUCAUUUUAAGGGUA

Variants of: B1
Test: self-cleavage, relative activity (ratio to wild type); higher = more cleavage; in vitro, sequencing; the parent is a self-cleaving ribozyme
Variant GUUAACGGUCAUAGGCCAUGGAAACUAGGAGCACCAUUUCGCUGCCAGUGAAGAAAUGAACAAAGAAAAUCUGGGCCAGGCGGGCAUCAAAAGAAAUAGACUUGCGCUCAACCAGAAAGUCUGUAAUCAUUUUAAGGGUA [A82G U100A] has a self-cleavage of 0.25. GUUAACGGUCAUUGGCCAUGGAAACUAGGAGCACCAUUUCGCUGCCAGUGAAGAAAUGAACAAAGAAAAUCUGGGCCAGGCAGGCAUCAAAAGAAAUAGUCUUGCGCUCAACCAGAAAGUCUGUAAUCGUUUUAAGGGUA [A13U A129G] gave a self-cleavage of 1.57. For GUUAACGGUCAUAGGCCGUGGAAACUAGGAGCACCAUUUCGCUGCCAGUGAAGAAAUGAACAAAGAAAAUCUGGGCCAGGCAGGCAUCAAAAGGAAUAGUCUUGCGCUCAACCAGAAAGUCUGUAAUCAUUUUAAGGGUA [A18G A94G], the self-cleavage was 1. GUUAACGGUCAUAGGCCAUGGAAACUAGGAGCACCAUUUCGCUGCCAGCGAAGAAAUGAACAAAGAAAAUCUGGGCCAAGCAGGCAUCAAAAGAAAUAGUCUUGCGCUCAACCAGAAAGUCUGUAAUCAUUUUAAGGGUA [U49C G79A] showed a self-cleavage of 0.13. In the case of CUUAACGGUCAUAGGCCAUGGAAACUAGGAGCACCAUUUCGCUGCCAGUGAAGAAAUGAACAAAGAAAAUCUGGGCCAGGCAGGCAUCAAGAGAAAUAGUCUUGCGCUCAACCAGAAAGUCUGUAAUCAUUUUAAGGGUA [G1C A91G], the self-cleavage is reported as 0.65. In the case of GUUAACGGUCAUAGGCCUUGGAAACUAGGAGCACCAUUUCGCUGCCAGUGAAGAAAUGAACAAAGAAAAUCUGGGCCAGGCAGGCAUCAAAAGAAAUAGUCUUGCGCUCAUCCAGAAAGUCUGUAAUCAUUUUAAGGGUA [A18U A111U], the self-cleavage is reported as 0.12. For GUUAACGGUCAUAGGCCAUGGAAACUAGGAGCACCAUUUCGCUGCCAGUGAUGAAAUGAACAAAGAAAAUCUGGGCCAGGCAGGCAUCAAAAGAAAUAGUCUUGCGCUCAACCAGGAAGUCUGUAAUCAUUUUAAGGGUA [A52U A116G], the self-cleavage was 1. With GUUAACGGUCAUAGGCCAUGGAAACUAGGAGCACCAUUUCGCUGCCAGUGAAGAAAUGAACAAAGAGAAUCUGGGCCAGGCAGGCAUCAAAAGAAAUAGUCUUGCGCUCAUCCAGAAAGUCUGUAAUCAUUUUAAGGGUA [A67G A111U] the self-cleavage was 0.12. In the case of GUUAACGGUCAUAGGCCAUGGAAACUAGGAGCACCCUUUCGCUGCCAGUGAAGAAAUGAACAAAGAAAAUCUGGGCCAGGCAGGCAUCAAAAGAAAUAGUCUUGCGCUCAACCAGAAAGUCUGUAAUCAUCUUAAGGGUA [A36C U131C], the self-cleavage is reported as 1.1. In the case of GUUAACGGUCAUAGGCCAUGGAUACUAGGAGCACCAUUUCGCUGCCAGUGAAGGAAUGAACAAAGAAAAUCUGGGCCAGGCAGGCAUCAAAAGAAAUAGUCUUGCGCUCAACCAGAAAGUCUGUAAUCAUUUUAAGGGUA [A23U A54G], the self-cleavage is reported as 1.59. With GUUAACGGUCAUAGGCCGUGGAAACUAGGAGCACCAUUUCGCUGCCAGUGAAGAAAUGAACAAAGAAAAUCUGGGCCAGGCAGGCAUCAAAAGAAAUAGUCUUGCGCUCAACCAGAAAGCCUGUAAUCAUUUUAAGGGUA [A18G U120C] the self-cleavage was 1.16. Variant GUUAACGGUCAUAGGCCAUGGAAACUGGGAGCACCAUUUCGCUGCCAGUGAAGAAAUGAACAAAGAAAAUCUGGGCCAGGCAGGCAUCAAAAGAAAUAGUCUUGCGCUCAACCAGAAAGUCUGUAAUCAUUUUGAGGGUA [A27G A134G] has a self-cleavage of 1.86. GUUAACGGUCAUAGGCCAUGGAAACUAGGAGCACCAUUUCGCUGCCAGCGAAGAAAUGAACAAAGAAAAUCUGGGCCAGGCAGGCAUCAAAAGAAAUAGUCUUGCGCUCAACCAGAAAGUCUGUAAUCAUUUUAAGGGUA [U49C] gave a self-cleavage of 1.12. In the case of GUUAACGGUCAUAGGCCAUUGAAACUAGGAGCACCAUUACGCUGCCAGUGAAGAAAUGAACAAAGAAAAUCUGGGCCAGGCAGGCAUCAAAAGAAAUAGUCUUGCGCUCAACCAGAAAGUCUGUAAUCAUUUUAAGGGUA [G20U U39A], the self-cleavage is reported as 1.57. With GUUAACGGUCAUAGGCCAUGGAAACUAGGAGCACCAUUUCGCUGCCAGUGAAGAAAUGAACAAAGAAAAUCUGGGCCAGGCAGGCAUCAAAAGAAAUAGCCUUGCGCUCAACCAGAAAGUCUGUAAGCAUUUUAAGGGUA [U100C U127G] the self-cleavage was 2.43. Work on GUUAACGGUCAUAGGCCAUGGAAACUAGGAGCACCAUUUCGCUGCCAGUGAAGAAAUGAGCAAAGAAAAUCUGGGCCAGGCAGGCAUCGAAAGAAAUAGUCUUGCGCUCAACCAGAAAGUCUGUAAUCAUUUUAAGGGUA [A60G A89G] yielded a self-cleavage of 1.55. In the case of GUUAACGGUCAUAGGCCAUGGAAACUAGGAGCACCAUUUCGCUGCCGGUGAAGAAAUGAACAAAGAAAAUCUGGGCCAGGCAGGCAUCAAGAGAAAUAGUCUUGCGCUCAACCAGAAAGUCUGUAAUCAUUUUAAGGGUA [A47G A91G], the self-cleavage is reported as 0.69. In the case of GUUAACGGUCAUAGGCCAUGGAACCUAGGAGCACCAUUUCGCUGCCAGUGAAGAAAUGAACAAAGUAAAUCUGGGCCAGGCAGGCAUCAAAAGAAAUAGUCUUGCGCUCAACCAGAAAGUCUGUAAUCAUUUUAAGGGUA [A24C A66U], the self-cleavage is reported as 1.03. For GUUAACGGUCAUAGGCCAUGGAAACUAGGAGCACCAUUUCGCUGCCAGUGAAGAAAUGGACAAAGAAAAUCUGGGCCAGGCAGGCAUCAAAAGAAAUAGUCUUGCGCUCAACCAGAAAGUCUGUAAUCAUUUUAAGGGCA [A59G U139C], the self-cleavage was 1.4. GUUAACGGUCAUAGGCCAUGGAAACUAGGAGCACCAUUUCGCUGCCAGUGAAGAAAUGAACAAAGAAAAUCUGGGCCAGGCAGGCAUCAAAAGAAAUAGUCUUGCGCUCAACCAGAAAGUCUGUAAUCAAUCUAAGGGUA [U130A U132C] gave a self-cleavage of 1.42. Variant GUUAACGGCCAUAGGCCAUGGAAACUAGGAGCACCAUUUCGCUGCCAGUGAAGAAAUGAACAUAGAAAAUCUGGGCCAGGCAGGCAUCAAAAGAAAUAGUCUUGCGCUCAACCAGAAAGUCUGUAAUCAUUUUAAGGGUA [U9C A63U] has a self-cleavage of 1.83. With GUUAACGGUCAUAGGCCAUGGAAACUAGGAGCACCAUUUUGCUGCCAGUGAAGAAAUGAACAAAGAAAAUCUGGGCCAGGCAGGCAUCAAAAGAAAUAGUCUUGCGCUCAACCAGAAAGUCAGUAAUCAUUUUAAGGGUA [C40U U122A] the self-cleavage was 1.3. With GUUAACGGUCAUAGGCCACGGAAACUAGGAGCACCAUUUCGCUGCCAGUGAAGAAAUGAACAAAGAAAAUCUGGGCCAGGCAGGCAUCAAAAGAAAUAGUCUUGCGCUCGACCAGAAAGUCUGUAAUCAUUUUAAGGGUA [U19C A110G] the self-cleavage was 0.08. Work on GUUAACGGUCAUAGGCCAUGGAAACUAGGAGCACCAUUUCGCUGCCAGUGAAGAAAUGAACAAAGAAAAUCUGGGCCAGGCGGGCAUCAAAAGAAAUAGUCUUGCACUCAACCAGAAAGUCUGUAAUCAUUUUAAGGGUA [A82G G106A] yielded a self-cleavage of 0.01. Variant GUUAACUGUCAUAGGCCAUGGAAACUAGGAGCACCAUUUCGCUGCCAGUGAAGAAAUGGACAAAGAAAAUCUGGGCCAGGCAGGCAUCAAAAGAAAUAGUCUUGCGCUCAACCAGAAAGUCUGUAAUCAUUUUAAGGGUA [G7U A59G] has a self-cleavage of 0.98. Variant GUUAACGGUCAUAGGCCAUGGAAACUAGGAGCACCAUUUCGCUGCCAGUGAAGAAAUGAACAAAGAAAAUCUGGGCCAGGCAGGCAUCAAAAGAAAUAGUCUUGCGCUCAACCAGAAAGUAUGUAAUCAUUUUAAGAGUA [C121A G137A] has a self-cleavage of 1.87. Work on GUUAACGGUCAUAGGCCAUGGAAACUAGGAGCACCAUUUCGCUGCCAGUGAAGAAAUGAACAAAGAAAAUCUGGGCCGGGCAGGCAUCAAAAGAAAUCGUCUUGCGCUCAACCAGAAAGUCUGUAAUCAUUUUAAGGGUA [A78G A98C] yielded a self-cleavage of 0.27. For GUUAACGGUCAUAGGCCAUGGAAACUAGGAGCACCAUUUCGCUGCCAGUGAGGAAAUGAACAAAGAAAAUCUGGGCCAGGCAGGCAACAAAAGAAAUAGUCUUGCGCUCAACCAGAAAGUCUGUAAUCAUUUUAAGGGUA [A52G U87A], the self-cleavage was 1.23. Work on GUUAACGGUCAUAGGCCAUGGAAGCUAGGAGCACCAUUUCGCUGCCAGUGAAGAAAUGAACAAAGAAAAUCUGAGCCAGGCAGGCAUCAAAAGAAAUAGUCUUGCGCUCAACCAGAAAGUCUGUAAUCAUUUUAAGGGUA [A24G G74A] yielded a self-cleavage of 0.31. With GUUAACGGUCAAAGGCCAUGGAAACUAGGAGCACCCUUUCGCUGCCAGUGAAGAAAUGAACAAAGAAAAUCUGGGCCAGGCAGGCAUCAAAAGAAAUAGUCUUGCGCUCAACCAGAAAGUCUGUAAUCAUUUUAAGGGUA [U12A A36C] the self-cleavage was 1.82. GUUAACGGUCAUAGGCCAUGGAAACUAGGAGCACCACUUCGCUGCCAGUGAAGAAAUGAACAAAGAAAGUCUGGGCCAGGCAGGCAUCAAAAGAAAUAGUCUUGCGCUCAACCAGAAAGUCUGUAAUCAUUUUAAGGGUA [U37C A69G] gave a self-cleavage of 1.17. Work on GUUAACGGACAUAGGCCAUGGAAACUAGGAGCGCCAUUUCGCUGCCAGUGAAGAAAUGAACAAAGAAAAUCUGGGCCAGGCAGGCAUCAAAAGAAAUAGUCUUGCGCUCAACCAGAAAGUCUGUAAUCAUUUUAAGGGUA [U9A A33G] yielded a self-cleavage of 0.9. Work on GUUAACGGUCAUAGGCCAUGGAAACUAGGAGCACCAUUUCCCUGCCAGUGAUGAAAUGAACAAAGAAAAUCUGGGCCAGGCAGGCAUCAAAAGAAAUAGUCUUGCGCUCAACCAGAAAGUCUGUAAUCAUUUUAAGGGUA [G41C A52U] yielded a self-cleavage of 2.16. For GUUAACGGUCAUAGGCCAUGGAAACUAGGAGCACCAUUUCGCUGCCAGUGAAGGAAUGAACAAAGAAAAUCUGGGCCAGGCAGGCAUCAAAAGAAAUAGUCUUGCGCUCAUCCAGAAAGUCUGUAAUCAUUUUAAGGGUA [A54G A111U], the self-cleavage was 0.06. GUUAACGGUCGUAGGCCAUGGAAACUAGGAGCACCAUUUCGCUGCCAGUGAAGAAAUGAACAAAGAAAAUCUGGGCCAGGCAGGCGUCAAAAGAAAUAGUCUUGCGCUCAACCAGAAAGUCUGUAAUCAUUUUAAGGGUA [A11G A86G] gave a self-cleavage of 0.76. GUUAACGGUCAUAGGCCAUGGAAACUAGGAGCACCACUUCGCUGCCAGUGAAGAAAUGAACAAAGAAAAUCUGGGCCAGGCAGGCAUCAAAAGAAAUAGUUUUGCGCUCAACCAGAAAGUCUGUAAUCAUUUUAAGGGUA [U37C C101U] gave a self-cleavage of 0.78. UUUAACGGUCAUAGGCCAUGGAAACUAGGAGCACCAUUUCGCUGCCAGUGAAGAAAUGAACAGAGAAAAUCUGGGCCAGGCAGGCAUCAAAAGAAAUAGUCUUGCGCUCAACCAGAAAGUCUGUAAUCAUUUUAAGGGUA [G1U A63G] gave a self-cleavage of 0.92. Work on GUUAACGGUCAUAGGCCAUGGAAACUAGGAGCACCAUUUCGCUGCCAGUGAAGAAAUGAACAAAGAAAAUCUGGGCCAGGCAGGCAUCCAAAGAAAUAGUCUCGCGCUCAACCAGAAAGUCUGUAAUCAUUUUAAGGGUA [A89C U103C] yielded a self-cleavage of 0.8. With GUUAACGGUCAUAGGCCAUGGAAACUAGGAGCGCCAUUUCGCUGCCAGUGAAGAAAUGAACAAAGAUAAUCUGGGCCAGGCAGGCAUCAAAAGAAAUAGUCUUGCGCUCAACCAGAAAGUCUGUAAUCAUUUUAAGGGUA [A33G A67U] the self-cleavage was 1.36. GUUAACGGUCAUAGGCCAUGGAAACUAGGAGCACCAUUUCGCUGCCAGUGUAGAAAUGGACAAAGAAAAUCUGGGCCAGGCAGGCAUCAAAAGAAAUAGUCUUGCGCUCAACCAGAAAGUCUGUAAUCAUUUUAAGGGUA [A51U A59G] showed a self-cleavage of 0.95. GUUAACGGUCAUAGGCCAUGGAAACUAGGAGCACCAUUUCGCUGCCAGUGAAGAAAUGAACAAAGAAAAUCUGGGCCAGGCAGGCAUCAAAAGAAAUAGUCUUGCGCUCAACCAGAAAGUCCGUAUUCAUUUUAAGGGUA [U122C A126U] gave a self-cleavage of 1.12.
